The target in experiment [1] is T1, His9-hMSR1 (human MSR1 extracellular domain) (Homo sapiens, UniProt P21757).
T1 construct: human MSR1 extracellular domain expressed with a N-terminal nonahistidine tag; His9 (nonahistidine) (N); purchased R&D Systems 2708-MS
T1 sequence (P21757 77-451 limits assumed): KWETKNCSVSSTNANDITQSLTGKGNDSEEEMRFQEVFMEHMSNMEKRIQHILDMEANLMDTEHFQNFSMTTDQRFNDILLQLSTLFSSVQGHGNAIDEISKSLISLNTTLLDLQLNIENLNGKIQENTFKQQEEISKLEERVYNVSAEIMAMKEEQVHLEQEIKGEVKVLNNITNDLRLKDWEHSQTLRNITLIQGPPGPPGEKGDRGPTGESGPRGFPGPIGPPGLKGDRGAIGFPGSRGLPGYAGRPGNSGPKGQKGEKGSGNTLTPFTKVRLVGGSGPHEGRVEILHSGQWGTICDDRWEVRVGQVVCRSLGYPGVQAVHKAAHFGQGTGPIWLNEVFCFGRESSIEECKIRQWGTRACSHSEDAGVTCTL
As to the kind of experiment: Biacore T200 surface plasmon resonance binding kinetics of anti-MSR1 antibody-drug conjugates and parental antibodies. To be noted: 25° C. The protocol:
The MSR1 antibodies disclosed herein were conjugated to various liver X receptor (LXR) payloads or various steroid payloads. This example describes how equilibrium dissociation constant (KD) values for human MSR1 reagents binding to human anti-MSR1 antibody-drug conjugates and their corresponding unconjugated parental antibodies were determined using a real-time surface plasmon resonance-based Biacore T200 biosensor.
All binding studies were performed in 10 mM HEPES, 300 mM NaCl, 3 mM EDTA, and 0.05% v/v Surfactant Tween-20, pH 7.4 (HBS-ET) running buffer at 25° C. The Biacore CM4 sensor chip surface was first derivatized by amine coupling with the goat anti-human Fcγ specific polyclonal antibody (Jackson ImmunoResearch Laboratories, Cat #BR-1008-39) to capture anti-MSR1 monoclonal antibodies. Binding studies were performed on human MSR1 extracellular domain expressed with a N-terminal nonahistidine tag (His9-hMSR1; R&D Systems, Cat #2708-MS).
The association rate (ka) and dissociation rate (kd) were determined by fitting the real-time binding sensorgrams to a 1:1 binding model with mass transport limitation using Scrubber 2.0c curve-fitting software. Binding dissociation equilibrium constant (KD) and dissociative half-life (t½) were calculated from the kinetic rates as: […]
Binding kinetics parameters for His9-hMSR1 binding to different anti-MSR1 antibody-LXR ADCs and their unconjugated parental antibodies at 25° C. are shown in Table 19. “LP1” represents a linker-payload for which the payload structure is provided in Example 11.
The binding studies were repeated with anti-MSR1 antibody H1H21234-N297Q and steroid linker payloads (LPs). “LP3” represents a linker-payload for which the structure is provided in Example 23, and “LP13” represents a linker-payload for which the structure is provided in Example 24.
A general note: SPR reads the build-up and loss of mass on a sensor chip optically.

In experiment [2] the target is HMM-mfMSR1 (monkey MSR1 extracellular domain). The experiment in a line: Biacore surface plasmon resonance binding kinetics of anti-MSR1 mAbs, antibody-capture format. The settings on record: analyte HMM-mfMSR1, NB = no binding observed; for kd: * = no dissociation observed, kd manually fixed at 1.00E−05; for ka: antibody-capture format; for Kd: calculated from kinetic rates; for t½: dissociative half-life. A digest of the protocol:
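Captured anti-MSR1 antibodies were run against MSR1 reagents by SPR in HBS-ET (pH 7.4) at 25 °C and 37 °C. ka and kd came from fitting sensorgrams to a 1:1 model with mass-transport limitation. KD and t½ were calculated from these rates.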

Experiment [3] relates to B16F10.9 cells (MSR1 negative). The experiment in a line: Flow cytometry binding, MSR1 negative cells. The class given is cell-based, mouse. The settings on record: 10 μg/mL antibody. The method, then: Relative cell surface binding of the anti-MSR1 antibodies to mouse MSR1 expressing cells was determined by flow cytometry using MSR1 positive RAW264.7 cells (ATCC, Catalog #TIB-71) and MSR1 negative B16F10.9 cells (Lin et al. 1998. PNAS 95:8829-8834). For the assay, cells were plated in PBS without calcium and magnesium (VWR Cat #45000-446) and 2% FBS (Saradigm Cat #1500-500) (Staining Buffer) in 96 well V-bottom plates (Axygen Scientific, Cat #P-96-450-V-C-S). To block binding to Fc receptors, RAW264.7 cells were incubated for 30 minutes at 4° C. with 500 μg/mL mouse IgG (Jackson ImmunoResearch, Cat #015-000-003) diluted in staining buffer, while B16F10.9 cells remained in staining buffer. Following Fc receptor blocking, 10 μg/mL of anti-MSR1 antibodies or an isotype control antibody were added to the cells and were subsequently incubated for 30 minutes on ice. For a positive control, a commercial anti-mouse MSR1 (Sino Biological, Cat #50129-R004) antibody was used, while a rabbit IgG antibody (Thermo Scientific, Cat #26102) was used as a negative control. […] Cells were subsequently washed and fixed using a 50% solution of Cytofix (BD Biosciences, Cat #554655) diluted in PBS. […] The signal to noise (S/N) was determined by calculating the ratio of the anti-MSR1 antibodies or the control antibodies MFI to the unstained sample MFI (Table 11).
For orientation: Flow cytometry measures light scatter and fluorescence of single cells or particles in a stream.

Here are results for six molecules from patent US12497460B2, “Anti-MSR1 antibodies and methods of use thereof” (REGENERON PHARMACEUTICALS, INC., priority 2018, dated 2025).

As usually defined, the Kd is the equilibrium constant for the complex coming apart. In general, t½ refers to the time in which the quantity being followed falls by half.

Chain of HMM-mfMSR1 (monkey MSR1 extracellular domain) (as listed by the source): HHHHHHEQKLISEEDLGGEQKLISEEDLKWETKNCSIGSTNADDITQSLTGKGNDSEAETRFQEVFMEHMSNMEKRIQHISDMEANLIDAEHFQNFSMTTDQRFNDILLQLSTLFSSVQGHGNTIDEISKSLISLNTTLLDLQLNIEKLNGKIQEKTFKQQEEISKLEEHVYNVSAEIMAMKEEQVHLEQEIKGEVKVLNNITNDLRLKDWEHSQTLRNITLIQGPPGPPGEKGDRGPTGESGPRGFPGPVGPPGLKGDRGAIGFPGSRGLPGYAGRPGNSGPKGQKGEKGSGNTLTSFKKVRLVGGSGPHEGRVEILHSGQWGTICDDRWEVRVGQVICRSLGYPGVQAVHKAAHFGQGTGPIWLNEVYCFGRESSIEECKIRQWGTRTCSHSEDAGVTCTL

B1: H1H21234N-N297Q-LP13 (conjugate)
VH: QVQLQESGPGLVKPSETLSLTCTVTGGSISRNYWSWIRQPPGKGLEWIGYIYYSGSIDYNPSLKSRVTISVDTSKNQFSLKLSSMTAADTAVYYCARDRWNWKYGMDVWGQGTTVIVSS
VL: EIVLTQSPGTLSLSPGERATLSCRASQTVRNNYLAWYHQKPGQAPRLLIYGASSRATGIPDRFSGSGSGTDFTLTISRLEPEDFTVYYCHQYGNSPWTFGQGTKMEIKR
As for B1, the ka in experiment [1] (Table 20, antibody-steroid ADCs and unconjugated antibody) was 400000 M⁻¹ s⁻¹. Besides, the kd in experiment [1] (Table 20, * = no dissociation observed, kd manually fixed at 1.00E−05) stood at 1e-05 s⁻¹.

B2: H1H21227N-N297Q: "modified versions of 21227N (H1H21227N-N297Q and H1H21227N-N297D)"; anti-MSR1 antibody "with a N297Q single point mutation" (antibody, V domains shown)
VH: QVQLVQSGAEVKKPGASVKVSCKVSGYTLTELSIHWVRQVPGKGLEWMGGFDPEEGETIFAQEFRDRVTLTEDTSPDTAYMELSSLKSEDAAVYYCTTPRYCNNGICYDYWGQGTLVTVSS
VL: DIQMTQSPSSLSASVGDRVTITCRASQSISNYLNWYQQKPGKAPKLLIYTASSLQSGVPSRFSGSGSGTDFTLTISSLQTEDFATYYCQQSYSNFPITFGQGTRLEIKR
For the molecule B2, in experiment [2] (25° C.), the kd came out at 7.51e-05 s⁻¹, the ka is 1.36e+06 M⁻¹ s⁻¹, the Kd was 0.0553 nM and the t½ came out at 2.57 h. Besides, in experiment [2] (37° C.), the kd came to 1.08e-05 s⁻¹, the ka came to 2.74e+06 M⁻¹ s⁻¹, the Kd is 0.00395 nM and the t½ was 17.82 h. In experiment [3], the “B16F10.9 MFI” value was 3287 and the “B16F10.9 S/N” value was found to be 1.

B3: H1H21227N-N297D: "The 21227N antibody was also produced as a third version with a N297D mutation" (antibody, V domains shown)
VH: QVQLVQSGAEVKKPGASVKVSCKVSGYTLTELSIHWVRQVPGKGLEWMGGFDPEEGETIFAQEFRDRVTLTEDTSPDTAYMELSSLKSEDAAVYYCTTPRYCNNGICYDYWGQGTLVTVSS
VL: DIQMTQSPSSLSASVGDRVTITCRASQSISNYLNWYQQKPGKAPKLLIYTASSLQSGVPSRFSGSGSGTDFTLTISSLQTEDFATYYCQQSYSNFPITFGQGTRLEIKR
For B3, in experiment [2] (25° C.), the kd was 4.03e-05 s⁻¹, the ka came to 1.35e+06 M⁻¹ s⁻¹, the Kd is 0.0299 nM and the t½ came out at 4.78 h. Moreover, in experiment [2] (37° C.), the kd was 2.42e-05 s⁻¹, the ka amounted to 2.68e+06 M⁻¹ s⁻¹, the Kd is 0.00903 nM and the t½ amounted to 7.95 h.

B4: H1H21231N: "anti-MSR1 antibodies ... (21227N, 21231N, 21234N) were produced with the original human Fcγ portion"; "H1H" = human IgG1 Fc (antibody, V domains shown)
VH: EVQLVESGGGLVQPGGSLRLSCAASGFTFSDHYMDWVRQAPGKGLEWVGRTRNKANSHTTEYTASVTGRFTISRDDSRNSLYLQMNSLKTEDTAVYYCVRAGIIGTLFDYWGQGTLVTVSS
VL: DIQMTQFPSSLSASVGDRVTITCRASQSISSFLNWFQQKPGKAPKFLIYAASSLQSGVPSRFSGSGSGTDFTLTISSLQPEDFATYYCQQSYSSPPITFGQGTRLEIKR
modifications: human IgG1 Fc
notes: "anti-MSR1 antibodies ; (21227N, 21231N, 21234N) were produced with the original human Fcγ portion"; "H1H" = human IgG1 Fc
As to B4, in experiment [2] (25° C.), the kd is 6.39e-05 s⁻¹, the ka stood at 274000 M⁻¹ s⁻¹, the Kd is 0.233 nM and the t½ came to 3.02 h. In experiment [2] (37° C.), the kd was found to be 7.82e-05 s⁻¹, the ka turned out to be 712000 M⁻¹ s⁻¹, the Kd is 0.11 nM and the t½ worked out at 2.47 h.

B5: H1H21227N: "anti-MSR1 antibodies ... (21227N, 21231N, 21234N) were produced with the original human Fcγ portion"; "H1H" = human IgG1 Fc (antibody, V domains shown)
VH: QVQLVQSGAEVKKPGASVKVSCKVSGYTLTELSIHWVRQVPGKGLEWMGGFDPEEGETIFAQEFRDRVTLTEDTSPDTAYMELSSLKSEDAAVYYCTTPRYCNNGICYDYWGQGTLVTVSS
VL: DIQMTQSPSSLSASVGDRVTITCRASQSISNYLNWYQQKPGKAPKLLIYTASSLQSGVPSRFSGSGSGTDFTLTISSLQTEDFATYYCQQSYSNFPITFGQGTRLEIKR
modifications: human IgG1 Fc
notes: as for B4
In the case of B5, in experiment [2] (25° C.), the kd was 4.41e-05 s⁻¹, the ka amounted to 1.27e+06 M⁻¹ s⁻¹, the equilibrium dissociation constant (Kd) was 0.0348 nM and the t½ stood at 4.37 h. Moreover, in experiment [2] (37° C.), the kd is recorded as 1.00E−05* s^−1, the ka was 2.76e+06 M⁻¹ s⁻¹, the Kd was 0.00362 nM and the t½ was 19.25 h.

B6: H1H21231N-N297Q: modified version of "21231N (H1H21231N-N297Q) anti-MSR1 antibodies" with "a N297Q single point mutation" (antibody, V domains shown)
VH: EVQLVESGGGLVQPGGSLRLSCAASGFTFSDHYMDWVRQAPGKGLEWVGRTRNKANSHTTEYTASVTGRFTISRDDSRNSLYLQMNSLKTEDTAVYYCVRAGIIGTLFDYWGQGTLVTVSS
VL: DIQMTQFPSSLSASVGDRVTITCRASQSISSFLNWFQQKPGKAPKFLIYAASSLQSGVPSRFSGSGSGTDFTLTISSLQPEDFATYYCQQSYSSPPITFGQGTRLEIKR
Regarding B6, in experiment [2] (25° C.), the kd came out at 9.03e-05 s⁻¹, the ka was found to be 240000 M⁻¹ s⁻¹, the equilibrium dissociation constant (Kd) was 0.376 nM and the t½ was 2.13 h. In experiment [2] (37° C.), the kd stood at 0.000109 s⁻¹, the ka was 587000 M⁻¹ s⁻¹, the Kd is 0.186 nM and the t½ was found to be 1.77 h. Further, the “B16F10.9 MFI” value in experiment [3] is 3374.
